Results taken from the nanobody polyreactivity screen of Harvey et al. (2022).

Experiment: yeast display, Sf9 membrane polyspecificity reagent, FACS + sequencing; frameworks hold sequencing errors
Procedure, shortened: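 Galactose-induced (36–48 hours) yeast carrying a synthetic nanobody display library were exposed to 10% biotinylated, detergent-solubilized Sf9 membrane reagent at 4 °C for 1 hour. FACS followed streptavidin microbead enrichment, using low and high (top ~1%) gates for expression (anti-HA) and reagent binding (streptavidin). Colony PCR, MiSeq 2 × 250 sequencing and CDR-length filtering followed. Labels for polyreactivity reflect the gate of origin.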

## QVQLVESGGGLVQAGGSLRLSCAASGRTITYYAMGWYRQAPGKERELVAAITWSGGSTYYADSVKGRFTISRDNAKNTVYLQMNSLKPEDTAVDYCAKEFYYSSGFDYWGQGTQVTVSS
  polyreactivity (PSR sort gate): low polyreactivity

## QVQLVESGGGLVQAGGSLRLSCAASGITFYVNAMGWYRQAPGKERELVAAITQSVDITSYADSVKGRFTISRDNAMNTFYLQINRLKPEYTAVYYCATRGIPDDNARDYWGQGTQVTVSS
  polyreactivity (PSR sort gate): low polyreactivity

## QVQLVESGGGLVHAGGSLRLSCAASGSNSNYYGMGWYRQAPGKERELVAAITWGGGRTNYADSVKGRFTISRDNAKNTVYLQMNSLKPEDTAVYYCAKVSVTHRYGAGGDYWGQGTQVTVSS
  polyreactivity (PSR sort gate): low polyreactivity

## QVQLVESGGGLVQAGGSLRLSCAASGFTFARYAMGWYRQAPGKERELVAAITYSGGRTYYADSVKGRFTISRDNAKNTVYLQMNSLKPEDTAVYYCAARLSKRSGYYYWGQGTQVTVSS
  polyreactivity (PSR sort gate): high polyreactivity

## QVQLVESGGGLVQAGGSLRLSCAASGRTFYSYVMGWYRQAPGKERELVAAIRSSGRTYYADSVKGRFTISRDNAKNTVYLQMNRLTPEDTAVYYCAAYAWVSGSLYDSWGQGTQVTVSS
  polyreactivity (PSR sort gate): high polyreactivity

## QVQLVESGGGLVQAGGSLRLSCAASGRTFGYNGMGWYRQAPGKERELVAAINSGGNTNYADSVKGRFTISRDNAKNTVYLQMNSLKPEDTSVYYCAKYGTLFEPVPNEYDYWGQGTQVTVSS
  polyreactivity (PSR sort gate): low polyreactivity

## QVQLVESGGGLVQAGGSLRLSCAASGRISPKNAMGWYRQAPGKERELVATIRKIGGRTYYADSVKGRFTISRDNAKNTVYLQMNSLKPEDTAVYYCATDFAPSYYPDRFDYRGQGTQVTVSS
  polyreactivity (PSR sort gate): low polyreactivity

## QVQLVESGGGLVQAGGSLRLTCAASGSIFVSYARGWYREAPGKERELVAAITSAGTPYYADSVKGRFTISRDNAKNTVYLQMNSLKPDDTAVYYCNTDASLKRTRVSPETEYGYWGQGTQVTVSS
  polyreactivity (PSR sort gate): low polyreactivity

## QVQLVESGGGLVQAGGSLRLSCAASGFTFRANGMGWYRQAPGKERELVATITSGGTTNYADSVKGRLTISRDNAKNTVYLQMNSLKPEDTAVYYCNAGSVSDRQMDYWGQGTQVTVSS
  polyreactivity (PSR sort gate): low polyreactivity

## QVQLVESGGGIVQAGGSLRLSCAASGFTFRGNAMGWYRQAPGKERELVAVINASGDSTYYADSVKGRFTISRDNAKNTVYLQMNSLKPEDTAVYYCARAYTRRWRYDYWGQGTQVTVSS
  polyreactivity (PSR sort gate): high polyreactivity

## QVQLVESGGGLVQAGGSLRLSCAASGSIFRYNAMGWYRQAPGKERELVAAITRSGGRTYYADSVKGRFTISRDNAKNTVYLQMNSLKPEDTAVYYCAAKGYTYGLTYDYWGQGTQVTVSS
  polyreactivity (PSR sort gate): high polyreactivity

## QVQLVESGGGLVKAGGSLRLSCAASAWYAMGWYRQAPGKEREFVAAITFSGSSTYYADSVKGRFTISRDNAKNTVYLQMNSLKPEVTAVYYCNADWWEWGQGTQVTVSS
  polyreactivity (PSR sort gate): low polyreactivity

## QVQLVESGGRLVQAGRSLRLSCAASGRTLKQYVMGWYRQAPGKERELVAAISRRGSSTYYADSVKGRFTISRDNAKNTVYLQMYSLKPEDTAVYYCAAPVYTTRHITAAYEEYGYWGQGTQVNVSS
  polyreactivity (PSR sort gate): high polyreactivity

## QVQLVESGGGLVQAGGSLRLSCAASGFNFYFYTMGWYRQAPGKERELVAGITWSGDSTYYADSVKGRFTISRDNAKNTVYLQMNSLKPEDTAVYYCAAGFDFGTRVSKGYDYWGQGTQVTVSS
  polyreactivity (PSR sort gate): low polyreactivity

## QVQLVESGGGLVQAGGSLRLSCAASGRIFVQYAMGWYRQAPGKERELVAAISKSGVRTFYADSVKGRFTISRDNAKNTVYLQMNSLKPEDTAVYYCNKAYRVGRTEFNYWGQGTQVTVSS
  polyreactivity (PSR sort gate): high polyreactivity

## QVQLLESGGGLVQAGGSLRLSCAASGRIIPYYAMGWYRQAPGKERELVATITSGGSTYYADSVKGRFTISRDNAKNTVYLQRNSLKPEDTAVYYCAARYPSIYYYRYDYWGQGTHVTVSS
  polyreactivity (PSR sort gate): high polyreactivity

## QVQLVESGGGLVQAGGSLRLSCAASGYTFGHYAMGWYRQAPGKERELVAVITSGGSTNYADSVKGRFTISRDNAKNTVYLQMNSLKPEDTAVYYCAADLYFYYVWIRDYWGQGTQVTVSS
  polyreactivity (PSR sort gate): low polyreactivity

## QDQLVESGGALVQAGGSLRLSCAASGFTFYKNAMGWYRQAPGKERELVAAISADGGRTYYADSVKGRFTISRDNAKNTVYLQMNSLKPEDTAVYYCAADKRLFRRPKTYDLWGQGTQVTVSS
  polyreactivity (PSR sort gate): high polyreactivity

## QVQLVESGGGLVQAGGSLRLSCAASGFIFSRNAMGWYRQAPGKERELVAVISTRGGSTYYADSVKGRFTISRDNAKNTVYLQMNSLKPEDTAVYYCAARRTRGYEYWGQGTQVTVSS
  polyreactivity (PSR sort gate): high polyreactivity

## QVQLVESGGGLVQAGGSLRLSCAASGFTFTTYGMGWSRQAPWKERELVAAISWSGGSTYYADSVKGRFTISRDNAKNTVYLQMNSLNPEYTAVYYCAKDRTYQASTLGYWGQGTQVTVSS
  polyreactivity (PSR sort gate): low polyreactivity

## QVQLVESGGGLVQAGGSLRLSCAASGFTFISNAMGWYRKAPGKERELVAAISSSGGRTYYADSVKGRFTISRDNAKNTVYLQMNSLKPEDTAVYYCNADRSLLYSRKIEYDYWGQGTQVTVSS
  polyreactivity (PSR sort gate): low polyreactivity

## QVQLVESGGGLVQAGGSLRLSCAASGLTFYVYAMGWYRQAPGKERELVAAISGRGGRTYYADSVKGRLTISRDNAKNTVYLQMNSLKPEDTAVYYCNRDYAVFSYGEYDSWGQGTQVTVSS
  polyreactivity (PSR sort gate): high polyreactivity

## HVQLVESGGGLVQAGGSLRLSCAASGRTLYRNAMGWYRQAPGKERELVARITWSGASTYYADYVKGRFTISRDNAKNTVYLQMNSLKPEVTAVYYCAAQYLSRRYGPYYTYNYWGLGTQVTVSS
  polyreactivity (PSR sort gate): high polyreactivity

## QVQLVESGGGLVQAGGSLRLSCAASGIIFSTYAMGWYRQAPGKERELVAAISDGGASTYYADSVKGRFTISRDNAKNTVYLQMNSLKPEDTAVYFCAAVQTAGQFRYGYWGQGTQVTVSS
  polyreactivity (PSR sort gate): high polyreactivity

## QVQLVESGGGLVQAGGSLRLRCAASGSIFIGYAMGWYRQAPGKERELVAAITSGSITNYAYSVKGRFTISRDNAKNTVYLLMNSLKPEDTAVYYCNADVNFIDDDYWGQGTQVTVSS
  polyreactivity (PSR sort gate): low polyreactivity

## QVQLVESGGGLVQPGGSLRLSCAASGLTISYYAMGWYRQAPGKEREFVAAITSRGGDTYYADSVKGRFTISRDNAKNTVYLQMNSLKPEDTAVYYCAVRPRYYGTYRYYYWGQGTQVTVSS
  polyreactivity (PSR sort gate): high polyreactivity

## QVQLVESGGGLVQAGGSLRLSCAASGRTFPGNAMGWYRQAPGKERELVATITWSSGRTHYADSVKGRFTISRDNAKNTVYLQMNSLKPEDTAVYYCAAKLIVAVGGFYYWGQGTQVTVSS
  polyreactivity (PSR sort gate): low polyreactivity

## QVQLVESGGGLVQAGGSLRLSCAASGRTFIHYAMVWYRQAPGKERELVAAISRRGGSTYYADSVKGRFTISRDNAKNTVYLQMNSLKPEDTAVYYCAKATTTREPKYGYWGQGTQVTVSS
  polyreactivity (PSR sort gate): high polyreactivity

## QVQLVESGGGLVQAGGSLRLSCAASGITFVANAMGWYRQAPGKERELVAAITRGGSTNYADSVKGRFTISRDNAKNTVYLQMNSLKPEDTAVYYCAADYVTRIGRYDYWGQGSQVTVSS
  polyreactivity (PSR sort gate): low polyreactivity

## QVQLVESGGGLVQAGGSLRLSCAASGRIFSWYAMGWYRQAPGKERELVARITTRGGNTYYADSVKGRFTFSRDNAKNTVYLQMNSLKPEVTAVYYCAARHPYPIYDYWGQGTQVSVSS
  polyreactivity (PSR sort gate): low polyreactivity

## QVQLVESGGGLVQAGGSIRLTCAASGRIFYGNAMGCYRQAPGKERELVAAISSGTSTNYADSVKGRFTISRDNAKTTVYLQMNSLKPEDTAVYYCAAGSYSRYLYSLYFDFDYWGQGTQVTVSS
  polyreactivity (PSR sort gate): low polyreactivity

## QVQLVESGGGLVQAGGSLRLSCAASGIIFPQNAMGWSRQAPGKERELVAAISKSGGRTYYADSVKGRFTISRDNAKNTVYVQMNSLKPEDSAVYYCAKVPYAYSRDRSAEDSWGQGTQVTVSS
  polyreactivity (PSR sort gate): high polyreactivity
